Results on one substance are retold here after US20130108609A1.

For the assay, the target named is Snapin, endogenous, in LNCaP cells (human) (UniProt O95295). Nature of the assay: cell-based or functional assay.
UniProt O95295, sequence (O95295 2-136): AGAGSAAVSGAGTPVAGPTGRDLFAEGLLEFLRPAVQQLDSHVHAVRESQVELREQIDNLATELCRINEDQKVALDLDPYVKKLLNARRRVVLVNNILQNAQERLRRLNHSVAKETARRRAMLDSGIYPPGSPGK

As to “human TMPAP stably expressed in LNCaP cells (LNCaP pMX TMPAP) (enzyme)”, the Pearson's correlation coefficient of co-localization (double immunofluorescence, cell lamellipodia only) came to 0.68 and the Pearson's correlation coefficient of co-localization (double immunofluorescence, whole cell) turned out to be 0.485.
